Biological target: stk25_human STK25 (UniProt O00506)
Sequence (O00506 whole entry, looked up): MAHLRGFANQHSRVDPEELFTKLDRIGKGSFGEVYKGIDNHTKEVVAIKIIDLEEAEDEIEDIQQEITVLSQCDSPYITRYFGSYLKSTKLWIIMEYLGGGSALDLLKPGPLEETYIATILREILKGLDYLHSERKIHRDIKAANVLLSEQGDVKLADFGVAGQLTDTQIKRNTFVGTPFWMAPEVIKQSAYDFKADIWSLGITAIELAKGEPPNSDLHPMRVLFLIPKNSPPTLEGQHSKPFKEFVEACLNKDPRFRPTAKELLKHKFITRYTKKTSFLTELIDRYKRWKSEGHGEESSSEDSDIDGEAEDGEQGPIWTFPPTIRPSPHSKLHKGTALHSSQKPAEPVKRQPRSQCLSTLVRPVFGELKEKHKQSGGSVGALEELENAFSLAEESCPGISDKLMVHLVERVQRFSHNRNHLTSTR

Chain of Programmed cell death protein 10 (Homo sapiens), Q9BUL8 F76D;L80D;M83D (Q9BUL8 whole entry F76D/L80D/M83D): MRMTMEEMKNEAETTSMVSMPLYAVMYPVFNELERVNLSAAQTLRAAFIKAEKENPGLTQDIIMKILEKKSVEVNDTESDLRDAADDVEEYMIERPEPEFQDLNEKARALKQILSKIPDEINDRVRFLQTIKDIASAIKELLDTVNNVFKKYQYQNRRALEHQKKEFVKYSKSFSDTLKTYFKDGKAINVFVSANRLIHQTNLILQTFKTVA

Programmed cell death protein 10 (Homo sapiens), Q9BUL8 F76D;L80D;M83D
effect of a mutation on the interaction: decreasing interaction strength

Reference: IntAct's records for PubMed 23665169
